FireProtDB (doi:10.1002/pro.2449)

Conditions: pH 7, transition: 2, reversible: yes, whole UniProt chain shown; for denaturant m value / denaturant midpoint (higher = more stable) / unfolding free energy: 25 °C, Urea; for Tm / unfolding enthalpy (calorimetric): Thermal, DSC
[1] = Borreliella burgdorferi, CD, Sodium Phosphate Buffer
[2] = Aspergillus oryzae (strain ATCC 42149 / RIB 40), MOPS
[3] = Kitasatospora aureofaciens, MOPS

B1: Variable large protein wild type, Q5DVG3 (protein)
chain: MNTKKISSAILLTTFFVFINCKSQVADKDDPTNKFYQSVIQLGNGFLDVFTSFGGLVAEAFGFKSDPKKSDVKTYFTTVAAKLEKTKTDLNSLPKEKSDISSTTGKPDSTGSVGTAVEGAIKEVSELLDKLVKAVKTAEGASSGTAAIGEVVDNAAAAKAADKDSVTGIAKGIKEIVEAAGGSKKLKAAAAKGENNKGAGKLFGKAGDAAHGDSEAASKAAGAVSAVSGEQILSAIVKAAAAGDQEGKKPGEAKNPIAAAIGEGDGDAEFNQDGMKKDDQIAAAIALRGMAKDGKFAVKNDEKGKAEGAIKGAAESAVRKVLGAITGLIGDAVSSGLRKVGDSVKAASKETPPALNK
For B1, the denaturant m value [1] was 3.86 kcal/mol/M, the “denaturant midpoint (higher = more stable)” value [1] was 1.19 M and the unfolding free energy [1] was 4.6 kcal/mol.

B2: Guanyl-specific ribonuclease T1 wild type, P00651 (protein)
chain: MMYSKLLTLTTLLLPTALALPSLVERACDYTCGSNCYSSSDVSTAQAAGYQLHEDGETVGSNSYPHKYNNYEGFDFSVSSPYYEWPILSSGDVYSGGSPGADRVVFNENNQLAGVITHTGASGNNFVECT
For B2, the denaturant m value [2] was 1.17 kcal/mol/M, the “denaturant midpoint (higher = more stable)” value [2] was 5.2 M and the unfolding free energy [2] was 6.1 kcal/mol. For the same protein, the Tm [2] was 52.5 °C and the “unfolding enthalpy (calorimetric)” value [2] was 107 kcal/mol.

B3: Guanyl-specific ribonuclease Sa wild type, P05798 (protein)
chain: DVSGTVCLSALPPEATDTLNLIASDGPFPYSQDGVVFQNRESVLPTQSYGYYHEYTVITPGARTRGTRRIITGEATQEDYYTGDHYATFSLIDQTC
For B3, the Tm [3] was 48.4 °C and the “unfolding enthalpy (calorimetric)” value [3] was 92 kcal/mol.
